Experimental findings from article PMC5587394 (Structure (London, England : 1993), 2017) are described below.

This assay addresses FGF9^WT (human FGF9, residues 35-208) (human, UniProt P31371 35-208). The assay can be described thus: SPR. (In general: In SPR one partner is held on a chip, and binding of the other changes the refractive index at the surface.)

B1: FGFR1c^ecto/WT (human FGFR1c ectodomain, residues 141-365) (domain or fragment)
chain: TDNTKPNRMPVAPYWTSPEKMEKKLHAVPAAKTVKFKCPSSGTPNPTLRWLKNGKEFKPDHRIGGYKVRYATWSIIMDSVVPSDKGNYTCIVENEYGSINHTYQLDVVERSPHRPILQAGLPANKTVALGSNVEFMCKVYSDPQPHIQWLKHIEVNGSKIGPDNLPYVQILKTAGVNTTDKEMEVLHLRNVSFEDAGEYTCLAGNSIGLSHHSAWLTVLEALEER
For B1, the binding result is “binds”.
